# B1: short conformation Fab (scFab) (Fab, V domains shown)
# VH: EVQLQQSGPELVKPGASMKISCKTSGYSFTGYTMNWVKQSHGKNLEWIGLINPYNGDTSYNQKFKGKATLTVDKSSSTAYMELLSLTSEDSAVYYCEVINTYWGQGTLVTVSA
# VL: DIVMTQSPASLAVSLGQRATISCKASQSIDYDGDNYMNWYQQKPGQPPKLLIYTTSNLESGIPARFSGSGSGTDFTLNIHPVEEGDAATYYCQQNNEDPYTFGGGTKLEIK
# notes: also called short conformation-selective Fab; Fab targeting M_(short)
# Molecular target: SARS-CoV-2 M protein (purified, in LMNG/CHS detergent) (SARS-CoV-2, UniProt P0DTC5)
# Test: cryo-EM structure
# Conditions: both partners purified
binder,measurement,value
B1,binding result,binds
